Values joined by “and” are separate entries in the source; they are usually repeats but may differ in a detail not shown here. Equal values may be shown once.
What was measured:
[1] = target: Influenza B nucleoprotein (strain B/Memphis/13/03) (influenza B virus, strain B/Memphis/13/03); experiment: SEC-MALLS
[2] = target: Influenza B nucleoprotein (strain B/Memphis/13/03) (influenza B virus, strain B/Memphis/13/03); experiment: negative stain electron microscopy

Substance: Influenza B nucleoprotein (strain B/Memphis/13/03) (natural protein)
- stoichiometry N [1]: 5 and 2 and 4
- stoichiometry N [2]: 2 and 4 and 5

Reference: article PMC5035961
